Measurements from article PMC3597701 (Nucleic Acids Research, 2013).
Positions count from the first letter of the chain named. Names may count otherwise.

B1: Cdt1 (natural protein)
chain: MSGTANSRRKEVLRVPVIDLNRVSDEEQLLPVVRAILLQHDTFLLKNYANKAVLDALLAGLTTKDLPDTSQGFDANFTGTLPLEDDVWLEQYIFDTDPQLRFDRKCRNESLCSIYSRLFKLGLFFAQLCVKSVVSSAELQDCISTSHYATKLTRYFNDNGSTHDGADAGATVLPTGDDFQYLFERDYVTFLPTGVLTIFPCAKAIRYKPSTMATTDNSWVSIDEPDCLLFHTGTLLARWSQGMHTTSPLQIDPRANIVSLTIWPPLTTPISSKGEGTIANHLLEQQIKAFPKVAQQYYPRELSILRLQDAMKFVKELFTVCETVLSLNALSRSTGVPPELHVLLPQISSMMKRKIVQDDILKLLTIWSDAYVVELNSRGELTMNLPKRDNLTTLTNKSRTLAFVERAESWYQQVIASKDEIMTDVPAFKINKRRSSSNSKTVLSSKVQTKSSNANALNNSRYLANSKENFMYKEKMPDSQANLMDRLRERERRSAALLSQRQKRYQQFLAMKMTQVFDILFSLTRGQPYTETYLSSLIVDSLQDSNNPIGTKEASEILAGLQGILPMDISVHQVDGGLKVYRWNSLDKNRFSKLLQIHKSKQQD
B2: Cdc6 (natural protein)
chain: MSAIPITPTKRIRRNLFDDAPATPPRPLKRKKLQFTDVTPESSPEKLQFGSQSIFLRTKALLQKSSELVNLNSSDGALPARTAEYEQVMNFLAKAISEHRSDSLYITGPPGTGKTAQLDMIIRQKFQSLPLSLSTPRSKDVLRHTNPNLQNLSWFELPDGRLESVAVTSINCISLGEPSSIFQKIFDSFQDLNGPTLQIKNMQHLQKFLEPYHKKTTFVVVLDEMDRLLHANTSETQSVRTILELFLLAKLPTVSFVLIGMANSLDMKDRFLSRLNLDRGLLPQTIVFQPYTAEQMYEIVIQKMSSLPTIIFQPMAIKFAAKKCAGNTGDLRKLFDVLRGSIEIYELEKRFLLSPTRGSLNSAQVPLTPTTSPVKKSYPEPQGKIGLNYIAKVFSKFVNNNSTRTRIAKLNIQQKLILCTIIQSLKLNSDATIDESFDHYIKAITKTDTLAPLQRNEFLEICTILETCGLVSIKKTKCKGKTKRFVDKIDVDLDMREFYDEMTKISILKPFLH
B3: Cdc6 N263A (sensor-1 mutant) (natural protein)
chain: B2 chain with N263A

Molecular target: origin recognition complex (ORC) (S. cerevisiae, UniProt P54784;P32833;P54790;P54791;P50874;P38826)
Experiment: in vitro pre-RC assembly assay on origin DNA beads

Row | Binder | binding result
1 | B1 | binds
2 | B2 | binds
3 | B3 | binds
